Measured values as given in US20070089183.
Where a chain is given by its changes, count along the chain named. Numbers in names are those of the source.

Molecular target: CaM (endogenous calmodulin of Arabidopsis plants)

B1: DWF1(V531D), full length, expressed in planta from 35S::DWF1(V531D) (protein)
chain: MSDLQTPLVRPKRKKTWVDYFVKFRWIIVIFIVLPFSATFYFLIYLGDMWSESKSFEKRQKEHDENVKKVIKRLKGRDASKDGLVCTARKPWIAVGMRNVDYKRARHFEVDLGEFRNILEINKEKMTARVEPLVNMGQISRATVPMNLSLAVVAELDDLTVGGLINGYGIEGSSHIYGLFADTVEAYEIVLAGGELVRATRDNEYSDLYYAIPWSQGTLGLLVAAEIRLIKVKEYMRLTYIPVKGDLQALAQGYIDSFAPKDGDKSKIPDFVEGMVYNPTEGVMMVGTYASKEEAKKKGNKINNVGWWFKPWFYQHAQTALKKGQFVEYIPTREYYHRHTRCLYWEGKLILPFGDQFWFRYLLGWLMPPKVSLLKATQGEAIRNYYHDMHVIQDMLVPLYKVGDALEWVHREMEVYPIWLCPHKLFKQPIKGQIYPEPGFEYENRQGDTEDAQMYTDVGVYYAPGCVLRGEEFDGSEAVRRMEKWLIENHGFQPQYAVSELDEKSFWRMFNGELYEECRKKYRAIGTFMSDYYKSKKGRKTEKEVREAEQAHLETAYAEAD
complementation of the dwf1 null mutant (plant phenotype, height): showed some degree of phenotype rescue, with round, expanded leaves but unextended petioles at the rosette stage and bushy flowering stems reaching up to 40% of the height of the wild-type plant

B2: DWF1(KYR521-523DGD), full length, expressed in planta from 35S::DWF1(KYR521-523DGD) (protein)
chain: B1 chain with K521D, Y522G, R523D, D531V
complementation of the dwf1 null mutant (plant phenotype): showed very slight phenotypic rescue

B3: DWF1(Δ518-539), full length, expressed in planta from 35S::DWF1(Δ518-539) (protein)
chain: MSDLQTPLVRPKRKKTWVDYFVKFRWIIVIFIVLPFSATFYFLIYLGDMWSESKSFEKRQKEHDENVKKVIKRLKGRDASKDGLVCTARKPWIAVGMRNVDYKRARHFEVDLGEFRNILEINKEKMTARVEPLVNMGQISRATVPMNLSLAVVAELDDLTVGGLINGYGIEGSSHIYGLFADTVEAYEIVLAGGELVRATRDNEYSDLYYAIPWSQGTLGLLVAAEIRLIKVKEYMRLTYIPVKGDLQALAQGYIDSFAPKDGDKSKIPDFVEGMVYNPTEGVMMVGTYASKEEAKKKGNKINNVGWWFKPWFYQHAQTALKKGQFVEYIPTREYYHRHTRCLYWEGKLILPFGDQFWFRYLLGWLMPPKVSLLKATQGEAIRNYYHDMHVIQDMLVPLYKVGDALEWVHREMEVYPIWLCPHKLFKQPIKGQIYPEPGFEYENRQGDTEDAQMYTDVGVYYAPGCVLRGEEFDGSEAVRRMEKWLIENHGFQPQYAVSELDEKSFWRMFNGELYEEKTEKEVREAEQAHLETAYAEAD
complementation of the dwf1 null mutant (plant phenotype): grew like the uncomplemented dwf1 mutants
